For orientation: GI50 means the concentration at which growth is held to half of that of the control.

The target in experiment [1] is T1, Tf-TfR binding (Homo sapiens, UniProt P02786).
T1 construct: A human TfR extracellular domain (the amino acids at positions 89 to 760); made in house; host or cells: Expi293 cells
The experiment in a line: Tf-TfR binding inhibition ELISA (HRP-labeled Tf on solid-phase sTfR). The following applies: dose 100 ng/mL; FIG. 3. How it is done: The Tf-TfR binding inhibitory activity of an antibody can be measured according to the method described in the after-mentioned “Example 2(2): Comparison between TfR436 antibody and antibodies of other companies in terms of Tf-TfR binding inhibition.” A TfR solution is dispensed into a substrate (a 96-well plate, etc.) and is then left at rest to obtain a solid phase, and thereafter, blocking is carried out. Subsequently, an HRP-labeled Tf solution is dispensed into the substrate, and an antibody is further added thereto, so that they are allowed to react with each other at room temperature. Thereafter, the substrate is washed, and a coloring reagent (TMB, etc.) is then added thereto, so that they are allowed to react with each other. After that, the absorbance is measured using a plate reader. By performing the above-described operations, the Tf-TfR binding inhibitory activity of the antibody can be evaluated.
The sTfR described in Example 1 was adjusted to a concentration of 5.0 μg/mL by addition of PBST, and the diluted solution was then dispensed into MaxiSorp 96-well plate (Nunc) in an amount of 100 μL/well. Thereafter, it was left at rest at 4° C. overnight to obtain a solid phase. […] Thereafter, the absorbance at 450 nm (ref. 620 nm) was measured.

The subject of experiment [2] is erythroblast cells. The experiment in a line: Growth of normal erythroblast cells derived from CD34-positive cells. The format is cell-based. The following applies: FIG. 4. How it is done: Frozen CD34-positive cells (POIETICS) were thawed at 37° C., and were then suspended in IMDM (GIBCO)+30% FBS (Sigma-Aldrich) and 100 U/ml DNase (QIAGEN), and thereafter, the cells were […] according to the instructions of the manufacturer. Thereafter, the cells were adjusted to 5×10^4 cells/ml with a culture medium prepared by adding 2-ME (50 μmol/L) (GIBCO), hIL-3 (100 U/ml) (Milteny biotec), hEPO (4 U/ml) (Roche), and hSCF (50 ng/ml) (Peprotech) to an SF-03 medium (EIDIA Co., Ltd.). The resulting cells were dispensed into a 24-well plate in an amount of 1 ml/well, and were then cultured at 37° C. in a 5% CO2 incubator. Seven days later, the cells were seeded into a 96-well plate, and the antibody was then added thereto in an amount of 0.15 ng/mL to 10 μg/mL, followed by culturing the mixture. A well without addition of the antibody was used as a control. Ninety six hours later, each well was fully stirred by pipetting, and 150 μl of the cell lysate was transferred into a V-bottom plate. Then, 20 μI of the transferred cell lysate was absorbed by FACS Calibur, and the number of cells was then counted. The value obtained by multiplying the obtained cell number by 10 was set to be the number of cells per well, and the growth percentage of the cells at each concentration of the antibody was then calculated, while the mean value of the control was set to be 100%.

Experiment [3] addresses T2, soluble wild-type TfR (sTfR) and TfR mutant fragments (MF1 to MF7) (Homo sapiens, UniProt P02786).
T2 construct: A human TfR extracellular domain (the amino acids at positions 89 to 760); made in house; host or cells: Expi293 cells
Nature of the experiment: ELISA reactivity with soluble wild-type TfR and TfR mutant fragments (binding site identification). The following applies: suggested from mutant fragment reactivity. On the procedure:
(§1) A neomycin resistance gene and a DHFR gene were incorporated into the expression vector pCAGGS (Non-Patent Document 2: Niwa et al. 1991), and thereafter, the synthesized genes were each inserted into the multicloning site of the obtained expression vector, so as to produce a pCAGGS-Neo-DHFR-sTFR-myc-his expression plasmid. Using Expifectamine (Invitrogen), the Expi293 cells (Invitrogen) were transfected with the above-described plasmid, and were then cultured at 37° C. in 8% CO2 at 135 rpm for 5 days. Thereafter, a culture supernatant was recovered by centrifugation. A HisTrapHP (GE Healthcare) column was connected with AKTA prime (GE Healthcare), and sTfR or MF1 to MF7 were then purified using 20 mM Imidazole/DPBS as a binding buffer and 500 mM Imidazole/DPBS as an elution buffer. The eluted protein was subjected to buffer exchange with 30 mM HEPES, 5% trehalose, pH 7.2, by using a Zeba spin column (Thermo scientific).
(§2) The thus purified sTfR or MF1 to MF7 were diluted with PBST (Phosphate Buffered Saline with Tween 20, TaKaRa), and the diluted solutions were prepared at 7 stages by 3-fold dilution from 600 ng/mL. […] Thereafter, the absorbance at 450 nm (ref. 620 nm) was measured using a plate reader.

Experiment [4] deals with soluble wild-type TfR (sTfR) and TfR mutant fragments (MF1 to MF7). The experiment is described as above. Details: species or system human. The following applies: TfR436 1 ug/mL; MF5 (positions 629, 630 and 633 substituted); FIG. 2. On the procedure:
as §1, §2

T1 sequence (P02786 89-760): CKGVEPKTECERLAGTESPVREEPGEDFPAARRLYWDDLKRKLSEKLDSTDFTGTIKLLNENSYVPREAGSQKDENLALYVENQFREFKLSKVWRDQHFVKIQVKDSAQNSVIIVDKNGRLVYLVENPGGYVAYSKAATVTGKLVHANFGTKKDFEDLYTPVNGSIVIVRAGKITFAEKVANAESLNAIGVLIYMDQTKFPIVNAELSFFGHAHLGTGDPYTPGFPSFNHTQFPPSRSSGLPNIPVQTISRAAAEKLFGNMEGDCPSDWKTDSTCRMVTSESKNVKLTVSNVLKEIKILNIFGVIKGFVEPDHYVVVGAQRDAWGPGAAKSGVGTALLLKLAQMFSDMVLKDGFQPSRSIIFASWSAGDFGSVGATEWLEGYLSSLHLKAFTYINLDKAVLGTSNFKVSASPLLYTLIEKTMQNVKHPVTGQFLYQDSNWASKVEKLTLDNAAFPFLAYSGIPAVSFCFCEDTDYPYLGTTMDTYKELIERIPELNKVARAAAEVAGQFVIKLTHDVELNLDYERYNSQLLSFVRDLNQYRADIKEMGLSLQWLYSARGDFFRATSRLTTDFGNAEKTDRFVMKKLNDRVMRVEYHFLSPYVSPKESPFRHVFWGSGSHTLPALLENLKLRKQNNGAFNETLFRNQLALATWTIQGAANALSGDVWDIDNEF
T2 sequence (P02786 89-760, change not shown): as the sequence (P02786 89-760) above

B1: TfR436: anti-human transferrin receptor antibody, VH SEQ ID NO: 7 and VL SEQ ID NO: 8, described in WO2014/073641; called PPMX-T003 in Tables 3 and 4 (antibody, listed as Homo sapiens, V domains shown)
VH: DVQLVQSGGGVVQPGRSLRLSCAASGFPFKSYGMHWVRQAPGKGLEWVAVISYDGSNKYYADSVKGRFTISRDNSKNTLYLQMNSLRGEDTAVYYCARDSNFWSGYYSPVDVWGQGTTVTVSS
VL: NFMLTQPHSVSESPGKTVTISCTRSSGSIASNSVQWYQQRPGSAPITVIYEDTQRPSGVPDRFSGSIDSSSNSASLTISGLQTEDEADYYCQSYDSAYHWVFGGGTKLAVL
Regarding B1, in experiment [1], the “inhibition of the binding of Tf-TfR” value is recorded as “completely inhibited”. Besides, the “growth of erythroblast cells” value in experiment [2] (0.15 ng/mL to 10 μg/mL, 96 hours) is given as “suppressed the growth”. In experiment [2] (96 hours culture), this molecule returned a GI50 of 0.125 µg/mL. In experiment [3], the epitope recognized result is listed as “amino acids at positions 629 to 633 of TfR”. In addition, in experiment [4], the “reactivity with TfR mutant fragment MF5” value is on record as “a reduction in the reactivity”.

The values are drawn from patent publication US20230220098A1, “THERAPEUTIC DRUG FOR POLYCYTHEMIA” (PERSEUS PROTEOMICS INC., priority 2019, published 2023).
